The results in this text go back to the supplement of paper PMC12764529.

The nature of data set [1]: folding stability dG unfold from trypsin proteolysis; higher = more stable. In outline:
(§1)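 How resistant each design was to proteolysis was captured as K50, inferred by Bayesian fitting of sequencing counts. Unfolding free energy was then derived relative to a sequence-predicted unfolded-state K50 and a shared folded-state K50, per protease or combined. Digestion used trypsin and chymotrypsin at 11 threefold-diluted concentrations plus a no-protease condition, on mini-proteins under 80 residues without cysteine in a PA-tagged cDNA display construct. Designs were kept only when AlphaFold2 dimer inter-PAE was above 15.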

Data set [2] can be described thus: folding stability dG unfold (combined trypsin and chymotrypsin); higher = more stable. In short, it runs like this:
as §1

Data set [3] is described as follows: folding stability dG unfold from chymotrypsin proteolysis; higher = more stable. In short, it runs like this:
as §1

± gives the half width of the 95% confidence interval.

With “SASESAVVEEEYTIDVTTVTPPGTPTTEPVRLTITRLPPNTVEVTLTAPDGKTVETRVIPLSVSLEELLSAG [r14_559_JUSTAS]”, the entries for the “folding stability dG unfold” value in data set [1], in data set [2] and in data set [3] were 0.413 ± 0.14 kcal/mol, 0.493 ± 0.16 kcal/mol and 0.134 ± 0.3 kcal/mol, respectively.
For “SASFRLEFPGVRIEVEVEEVEVFPRPDGRPYRLYRAKIRFLDVPEELQALDFPFSLDDEIEVLFLVSLDSAG [r14_942_TrMRF]” the same measures were 3.84 ± 0.07 kcal/mol, 4.18 ± 0.12 kcal/mol and 4.36 ± 0.12 kcal/mol.
For “SASKKPKLIIVDIVIKPEELKKMKPEELIEKILKELGIPKEKDVKIDLFLEPVELDGEEYYIIPALITNSAG [r14_334_TrMRF]”, in that order: 1.11 ± 0.13 kcal/mol, 1.24 ± 0.28 kcal/mol and 1.08 ± 0.14 kcal/mol.
For “SASLANGGLRVDVELEFDPETHEIRVKRLTLYRGDEPVATADATIAVPPAAPPPPPVVVLDPDVPFDNESAG [r14_571_TrMRF]”, in that order: 0.687 ± 0.075 kcal/mol, 1.28 ± 0.12 kcal/mol and 1.71 ± 0.084 kcal/mol.
On to “SASLEEILASLGYSVSRSVLPNGTEVVTARHPDGTTVTVTVTPDGTTVTVTPPDGTVTTLSVEDVRRALSAG [r14_578_JUSTAS]”, for which the “folding stability dG unfold” value in data set [1] is 2.97 ± 0.045 kcal/mol; in data set [2], 3.03 ± 0.05 kcal/mol; in data set [3], 3.118 ± 0.017 kcal/mol.
For “SASLVPTEREFELPGGERLRVTTPLDPNSDTPTVTVEKFTEAPDGTVTSTTTTVPPSEVAAVLEALGLRSAG [r14_416_JUSTAS]” the same measures were 0.664 ± 0.023 kcal/mol, 0.423 ± 0.052 kcal/mol and 0.147 ± 0.045 kcal/mol.
As to “SASLVVRLPDGTEILFENLSLEEVVKLFDGGEIEIEPVPKLPVVNASSLEEAEEIAEKLKPDFVITLSGSAG [r14_445_TrMRF]”, the “folding stability dG unfold” value in data set [1] is 1.6 ± 0.088 kcal/mol; in data set [2], 1.61 ± 0.074 kcal/mol; in data set [3], 1.6 ± 0.044 kcal/mol.
As to “SASNRVTVSSETVREGDKKLLKLTVTITDSSTGRTSTETLTTEDPEKAREELAARPDVSTLTFETLTPGSAG [r14_464_JUSTAS]”, the entries for the “folding stability dG unfold” value in data set [1], in data set [2] and in data set [3] were 0.303 ± 0.12 kcal/mol, 0.1 ± 0.19 kcal/mol and -0.196 ± 0.2 kcal/mol, respectively.
For “SASPDAPVEVVVSLRELRERIEAEHPGRPVTPEDVAALAREELEAAGRPLEDLRVEAVDEATGTVRLVASAG [r14_303_JUSTAS]”, in that order: -0.251 ± 0.054 kcal/mol, 0.907 ± 0.035 kcal/mol and 1.29 ± 0.019 kcal/mol.
For “SASPDETVILEKVLPPSASPEEVEKEREEIREKLESLGAKVEVTIEPDPETGTIPIKITITKEQYEKLKSAG [r14_602_JUSTAS]”, in that order: -0.459 ± 0.064 kcal/mol, 0.034 ± 0.15 kcal/mol and 0.0517 ± 0.056 kcal/mol.
For “SASPRTITVPVTRFPDGTVRFTIETPDKTITLTFPPSATFEEALEKLSPDPDKKITLVEKDPTTVTVAESAG [r14_404_JUSTAS]” the same measures were 0.781 ± 0.051 kcal/mol, 0.873 ± 0.13 kcal/mol and 0.852 ± 0.16 kcal/mol.
On to “SASSELLELLKALPTPEVPTDPIFTLEEPDRPIRVLSYDPETGLVTMLIPGTGARLIRDPASGTYTLLPSAG [r14_359_JUSTAS]”, for which the “folding stability dG unfold” value in data set [1] was -0.184 ± 0.07 kcal/mol; in data set [2] it was 0.578 ± 0.066 kcal/mol; in data set [3] it was 0.92 ± 0.071 kcal/mol.
For “SASSFPPGSTATLTVRVTDPAGTATTTLTIPLSVDPSTGKAVSLEEVYEILKELGVDPANVTITSLTVSSAG [r14_93_JUSTAS]”, in that order: 3.07 ± 0.088 kcal/mol, 3.07 ± 0.08 kcal/mol and 3.143 ± 0.024 kcal/mol.
In the case of “SASSSFTLPGLKLEVETQKVSTFPTPDGTPVVLYETTIHFLEVPESLRAEGKPLSLESSVKKLKVVPLPSAG [r14_942_JUSTAS]”, the “folding stability dG unfold” value was 0.277 ± 0.14 kcal/mol in data set [1], 0.391 ± 0.2 kcal/mol in data set [2] and 0.453 ± 0.33 kcal/mol in data set [3].
For “SASSSMSSSSTSRTVPTPEGPVSITITFYPSTGKYTATITDPATSTATTVPSPGSSVEEAIAEAIALLASAG [r14_65_JUSTAS]”, the “folding stability dG unfold” value in data set [1] turned out to be 1.94 ± 0.091 kcal/mol; in data set [2], 2.21 ± 0.088 kcal/mol; in data set [3], 2.39 ± 0.022 kcal/mol.
For “SASSVEKEFDSIEDALKAIKEALAKKVPVKMKMDPETVKELKKAGFPDIDVTKEKLPNGNEYYLLELLFSAG [r14_127_JUSTAS]” the same measures were 1.06 ± 0.019 kcal/mol, 1.15 ± 0.058 kcal/mol and 1.2 ± 0.051 kcal/mol.
For “SASVTTLTFTVTYPGGETETFTVTVPNLTEEEAKALAEKLAEEIQEKSKKPGVKVEVSITRYPADDPALSAG [r14_207_JUSTAS]” the same measures were 3.9 ± 0.17 kcal/mol, 4.2 ± 0.18 kcal/mol and 4.13 ± 0.21 kcal/mol.
With “SATKTITIELPVDVPVEVLKEFFEALGFTEMEFYETEDPRTLVVRFTVPGDPVTVIVIVRPLPVPPDEPLSA [r9_1090_TrMRF]”, the “folding stability dG unfold” value in data set [1] amounted to 3.29 ± 0.16 kcal/mol; in data set [2], 3.55 ± 0.12 kcal/mol; in data set [3], 3.57 ± 0.063 kcal/mol.
For “SATLTFTATLPDGSRVLEVTAEPRPDGTVTIRMRAEFTFAPGVTVTVPATITVPVPPPPALPPDDPRLFSAG [r14_95_TrMRF]” the same measures were 2.73 ± 0.057 kcal/mol, 3.09 ± 0.086 kcal/mol and 3.33 ± 0.05 kcal/mol.
Regarding “SATPYTFTLPDGYVIPAYKLPDGTVRVTAQYYDPVDRKPVGTYEATADPTDGTIELTFPNGDKATITLPDSA [r9_56_TrMRF]”, the “folding stability dG unfold” value in data set [1] came to 0.859 ± 0.051 kcal/mol; in data set [2], 1.01 ± 0.09 kcal/mol; in data set [3] it was 1.01 ± 0.1 kcal/mol.
On to “SAVSTAQLPDDTTLTTITLPGDPSVTLTITTRKLPDGTPYLDATITLPDGTPVTVTFPAGTEAAVIAALASA [r9_310_JUSTAS]”, for which the “folding stability dG unfold” value in data set [1] turned out to be 2.51 ± 0.097 kcal/mol; in data set [2], 2.44 ± 0.086 kcal/mol; in data set [3], 2.46 ± 0.029 kcal/mol.
As for “SAVTLLSTEFVPEEGVVRLLFERPAPPDTTTFTFSVSVNGYPIESISLSVDPATNTATATATAKVPPGLSAG [r14_244_JUSTAS]”, the “folding stability dG unfold” value in data set [1] worked out at 2.42 ± 0.16 kcal/mol; in data set [2] it was 3.2 ± 0.22 kcal/mol; in data set [3] it was 4.1 ± 0.11 kcal/mol.
For “SAWIEIEKDPDGMFELEIPWPDGHPVKIHYNPDDGKPLHIMFPNGWHLQIWISPDGKIEIEDIHPIPPNSAG [r14_877_TrROS]” the same measures were 3.11 ± 0.24 kcal/mol, 3.01 ± 0.13 kcal/mol and 3.12 ± 0.049 kcal/mol.
For “SAWKIWIEFTPGDPGDTYQIRIDPNSPNLEALLKELAQMFKYEVKDAEVEYNPNGSVWVEFKVDELKPPSAG [r14_655_TrROS]” the same measures were 1.77 ± 0.081 kcal/mol, 2.37 ± 0.095 kcal/mol and 2.67 ± 0.056 kcal/mol.
In the case of “SDIEIERDPNMIRIEHTYPFDNYRVKISLYVMVGPDGQFMLMIPIEIELPPPPPTPEKDPNGKEKWKPDASA [r9_456_TrROS]”, the “folding stability dG unfold” value in data set [1] was determined as 2.67 ± 0.21 kcal/mol; in data set [2] it was 3.85 ± 0.53 kcal/mol; in data set [3] it was 4.27 ± 0.21 kcal/mol.
For “SDIKIENYERNPGNGMYMWTVKLPDDGKKIEIMYPPGGIYISVEHPGKKKMFPFKSWEDMLDQVKDLLKNSA [r9_527_TrROS]”, in that order: 1.24 ± 0.045 kcal/mol, 1.36 ± 0.26 kcal/mol and 1.79 ± 0.23 kcal/mol.
For “SDKIIIPIYLPPGQDPDEIKNEIKWFARELWDKLGLPPNVKVEIEPRPYPEGYRRYMITIRLGGKEITIWSA [r9_776_TrROS]”, the “folding stability dG unfold” value in data set [1] is 3.08 ± 0.1 kcal/mol; in data set [2] it was 3.34 ± 0.22 kcal/mol; in data set [3] it was 3.6 ± 0.053 kcal/mol.
